The chains are these.
B1: FF0117-A8 (Fab, V domains shown)
VH: EVQLVESGGGLVQPGGSLRLSCAASGFDLFHYSIHWVRQAPGKGLEWVAYIYPSYGYTYYADSVKGRFTISADTSKNTAYLQMNSLRAEDTAVYYCARHAWYSGWALDYWGQGTLVTVSS
VL: DIQMTQSPSSLSASVGDRVTITCRASQSVSSAVAWYQQKPGKAPKLLIYSASSLYSGVPSRFSGSRSGTDFTLTISSLQPEDFATYYCQQRGWYLFTFGQGTKVEIK
notes: fourth generation Fab from the library based on FF0188-H5
B2: FF0117-A3 (Fab, V domains shown)
VH: B1 VH with S103F
VL: B1 VL
notes: as for B1
B3: FF0117-A11 (Fab, V domains shown)
VH: B1 VH with S103W
VL: B1 VL
notes: as for B1
B4: FF0124-5 (Fab, V domains shown)
VH: EVQLVESGGGLVQPGGSLRLSCAASGFDISSYYMHWVRQAPGKGLEWVASIYSYSGYTYYADSVKGRFTISADTSKNTAYLQMNSLRAEDTAVYYCARHSVYYWYGSYWYYPSSAMDYWGQGTLVTVSS
VL: DIQMTQSPSSLSASVGDRVTITCRASQSVSSAVAWYQQKPGKAPKLLIYSASSLYSGVPSRFSGSRSGTDFTLTISSLQPEDFATYYCQQFWAGYGLITFGQGTKVEIK
notes: also called FF0124-5 F2091
B5: FF0124-6 (Fab, V domains shown)
VH: EVQLVESGGGLVQPGGSLRLSCAASGFDIYYYSMHWVRQAPGKGLEWVASISSYSGYTSYADSVKGRFTISADTSKNTAYLQMNSLRAEDTAVYYCARYPYYYWAFDYWGQGTLVTVSS
VL: B4 VL with F91S, W92G, A93H, G94Y, Y95H, G96Y, L97P, I98F
notes: also called FF0124-6 F2094
B6: FF0124-4 (Fab, V domains shown)
VH: EVQLVESGGGLVQPGGSLRLSCAASGFDLYSYSIHWVRQAPGKGLEWVASIYSYSGYTYYADSVKGRFTISADTSKNTAYLQMNSLRAEDTAVYYCARGGWYALDYWGQGTLVTVSS
VL: DIQMTQSPSSLSASVGDRVTITCRASQSVSSAVAWYQQKPGKAPKLLIYSASSLYSGVPSRFSGSRSGTDFTLTISSLQPEDFATYYCQQGYGPFYSLITFGQGTKVEIK
notes: also called FF0124-4 F2088
B7: FF0124-7 (Fab, V domains shown)
VH: EVQLVESGGGLVQPGGSLRLSCAASGFDLYYSYMHWVRQAPGKGLEWVASISSYSGYTSYADSVKGRFTISADTSKNTAYLQMNSLRAEDTAVYYCARGFYYGGWYGIDYWGQGTLVTVSS
VL: DIQMTQSPSSLSASVGDRVTITCRASQSVSSAVAWYQQKPGKAPKLLIYSASSLYSGVPSRFSGSRSGTDFTLTISSLQPEDFATYYCQQHYGPITFGQGTKVEIK
notes: also called FF0124-7 F2116
B8: FF0124-2 (Fab, V domains shown)
VH: EVQLVESGGGLVQPGGSLRLSCAASGFDLYYSSMHWVRQAPGKGLEWVASISPSSSYTYYADSVKGRFTISADTSKNTAYLQMNSLRAEDTAVYYCARYYWWHSPFWAYSGLDYWGQGTLVTVSS
VL: B7 VL with H91S, Y92G, G93P, P94L, I95F
notes: seventh Fab of the naive library selection; also called FF0124-2 F2083; FF0124 Fab # 2
B9: FF03033-5 (Fab, V domains shown)
VH: B1 VH with S103Y, A106G
VL: DIQMTQSPSSLSASVGDRVTITCRASQGVGERVAWYQQKPGKAPKLLIYNASHLAGVPSRFSGSRSGTDFTLTISSLQPEDFATYYCQQRGWYLFTFGQGTKVEIK
notes: fifth generation Fab from the library based on FF0117-A5
B10: FF03033-6 (Fab, V domains shown)
VH: B1 VH with S103Y, A106G
VL: B9 VL with G28P, V29R, G30E, E31D, N50R, H53T
notes: as for B9
B11: FF03033-8 (Fab, V domains shown)
VH: B1 VH with S103Y, A106G
VL: B9 VL with G28A, V29A, G30Y, E31G, N50K, H53E
notes: fifth generation Fab with one residue deleted near the end of CDR-L2; the text says FF03046-2 was made from it by putting the tyrosine back
B12: FF03033-2 (Fab, V domains shown)
VH: B1 VH with S103Y, A106G
VL: B9 VL with G28V, V29A, G30F, E31Y, R32N, N50D, H53I, A55N
notes: as for B9
B13: FF03033-3 (Fab, V domains shown)
VH: B1 VH with S103Y, A106G
VL: B9 VL with G28F, E31Y, R32N, N50Q, H53S
notes: as for B9
B14: FF03033-4 (Fab, V domains shown)
VH: B1 VH with S103Y, A106G
VL: B9 VL with G28E, V29G, G30W, E31D, N50S, H53Q
notes: fifth generation Fab with one residue deleted near the end of CDR-L2; the text says FF03046-1 was made from it by putting the tyrosine back
B15: FF0188-H5 (Fab, V domains shown)
VH: B1 VH with L107M
VL: B1 VL
notes: third generation Fab, parent of the FF0117 library; also called FF0188-H5(2)
B16: Variant 209 (Fab variant of Clone #201) (Fab, V domains shown)
VH: B1 VH with S103Y, A106G
VL: DIQMTQSPSSLSASVGDRVTITCRASQDAAYGRVAWYQQKPGKAPKLLIYKASELYAGVPSRFSGSRSGTDFTLTISSLQPEDFATYYCQQRGWYLFTFGQGTKVEIKR
B17: Variant 206 (Fab variant of Clone #201) (Fab, V domains shown)
VH: B1 VH with S103Y, A106G
VL: DIQMTQSPSSLSASVGDRVTITCRASQAAYGRVAWYQQKPGKAPKLLIYDASELYAGVPSRFSGSRSGTDFTLTISSLQPEDFATYYCQQRGWYLFTFGQGTKVEIKR
notes: also called SI; No. 3
B18: Variant 219 (Fab variant of Clone #201) (Fab, V domains shown)
VH: B1 VH with S103Y, A106G
VL: B17 VL with G31D, D50K
notes: also called SI; No. 9
B19: Variant 205 (Fab variant of Clone #201) (Fab, V domains shown)
VH: B1 VH with S103Y, A106G
VL: B17 VL with D50K, A51D
B20: Variant 215 (Fab variant of Clone #201) (Fab, V domains shown)
VH: B1 VH with H31D, S103Y, A106G
VL: B17 VL with D50K
B21: Variant 213 (Fab variant of Clone #201) (Fab, V domains shown)
VH: B1 VH with S33D, S103Y, A106G
VL: B17 VL with D50K
B22: Variant 212 (Fab variant of Clone #201) (Fab, V domains shown)
VH: B1 VH with H35D, S103Y, A106G
VL: B17 VL with D50K
B23: Variant 220 (Fab variant of Clone #201) (Fab, V domains shown)
VH: B1 VH with S103Y, A106G
VL: B17 VL with R32D, D50K
B24: FF0158-C4 (Fab, V domains shown)
VH: B1 VH with D28N, F30Y, H31Y, L107M
VL: B1 VL
notes: Second generation Fab, Fab-phage in the single point assay; also called FF0158-C4 (2)
B25: FF0188-B10 (Fab, V domains shown)
VH: B1 VH with L107M
VL: B1 VL
notes: third generation Fab from libraries based on FF0158-C4; also called FF01088-B10
B26: FF0117-A10 (Fab, V domains shown)
VH: B1 VH with S103Y
VL: B1 VL

Numbering of substitutions follows the chain as printed. Some results are limits rather than exact numbers.

One assay deals with T1, recombinant human vascular endothelial growth factor (hVEGF) 121 (human, UniProt P15692 27-147).
T1 construct: mature; also called human VEGF-A121; hVEGF 121 isoform
T1 sequence (looked up): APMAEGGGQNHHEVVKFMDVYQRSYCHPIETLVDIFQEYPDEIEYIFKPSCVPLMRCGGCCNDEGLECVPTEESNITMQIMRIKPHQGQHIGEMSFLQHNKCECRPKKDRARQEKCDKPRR
The experiment in a line: single point competitive phage-ELISA: residual binding of the Fab-phage to hVEGF after competition with 1 nM hVEGF.
For B1, the “Residual binding of competitive phage-ELISA 1nM” value (“Residual binding” for short) turned out to be 17%.
As to B2, the “Residual binding” value was 7%.
Take B3: the “Residual binding” value came out at 5%.

In the next assay the target is T1, recombinant human vascular endothelial …. Kind of assay: Fab-ELISA: Fab titrated on wells coated with 2 ug/mL hVEGF-121, detected with anti-kappa-light-chain-HRP; Kd estimated from EC50. The text has this:
(§1) FIG. 4a-b. […] The bound Fabs were detected with anti-Kappa-light-chain-HRP-conjugated antibody (B).
For the molecule B4, the Kd was 19 nM.
As to B5, the Kd is 25 nM.
Regarding B6, the Kd is 11 nM.
On the same count and under the same terms, with B7 the figure was 33 nM.
Consider B8, for which the equilibrium dissociation constant (Kd) is 47 nM.

The target is the same in a further assay. The experiment in a line: SPR, off rate of hVEGF-121 binding.
Take B9: the koff is 0.000168 s⁻¹.
Consider B10, for which the koff was 0.000284 s⁻¹.
In the case of B11, the koff was less than 1e-06 s⁻¹.
As for B12, the koff was 0.000236 s⁻¹.
For the molecule B13, the koff is 0.000146 s⁻¹.
Same read-out and setting: with B14 the figure was less than 1e-06 s⁻¹.

The target is the same in the next assay. Kind of assay: competitive Fab-ELISA (hVEGF).
Consider B1, for which the Kd came out at 0.13 nM.
The same measure, in the same setting: under B2 stands 0.06 nM; under B15, 0.4 nM; under B3, 0.03 nM.

The target of the next assay is T2, recombinant human VEGF 165 isoform (human, UniProt P15692 27-191).
T2 construct: mature
T2 sequence (P15692 other isoform, or with tags, fused parts or gaps): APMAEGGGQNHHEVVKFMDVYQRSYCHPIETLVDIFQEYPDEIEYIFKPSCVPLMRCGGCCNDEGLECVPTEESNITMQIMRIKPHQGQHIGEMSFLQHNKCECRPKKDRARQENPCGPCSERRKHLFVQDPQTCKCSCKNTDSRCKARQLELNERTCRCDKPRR
Kind of assay: competitive ELISA in solution, 10 pM hVEGF-165, free VEGF read with Quantikine kit. The text has this:
Kd calculated from the data fitted with a 5 parameter asymmetric model with Prism software.
Regarding B16, the dissociation constant Kd is 0.028 nM.
For the molecule B17, the Kd amounted to 0.014 nM.
Consider B18, for which the Kd stood at 0.012 nM.
Regarding B19, the Kd is 0.062 nM.
For B20, the Kd came out at 0.027 nM.
Consider B21, for which the Kd worked out at 0.091 nM.
On to B22, for which the Kd was 1.28 nM.
As to B23, the Kd came out at 0.026 nM.

A further assay has as its target T1, recombinant human vascular endothelial …. The experiment in a line: competitive ELISA with soluble Fab (column 'Affinity measured by competitive ELISA'); hVEGF, isoform not told in the legend.
On to B15, for which the equilibrium dissociation constant (Kd) was 0.45 nM.
Consider B24, for which the Kd was 0.15 nM.
Take B25: the Kd is 0.41 nM.

The next assay has the same target. Kind of assay: competitive Fab-ELISA, data and fit for the Kd of panel A; x axis printed as LOG([Fab] nM) with ticks 10^-6 to 10^2; hVEGF, isoform not told.
Take B15: the “IC50 (read off the curve)” value is approximately 0.4 nM.
Same read-out and setting: with B24 the figure was approximately 0.1 nM; with B25, approximately 0.4 nM.

The target of the next assay is recombinant human vascular endothelial growth factor (hVEGF) 121 (human) (UniProt P15692). Kind of assay: single point competitive phage-ELISA: residual binding of the Fab-phage to hVEGF after competition with 1 nM hVEGF.
With B26, the Residual binding of competitive phage-ELISA 1nM worked out at 7%.

The target in the next assay is T1, recombinant human vascular endothelial …. The experiment in a line: Fab-ELISA: Fab titrated on wells coated with 2 ug/mL hVEGF-121, detected with anti-kappa-light-chain-HRP.
From the text: as §1
In the case of B4, the “EC50 (read off the curve)” value was approximately 20 nM.
In the case of B5, the “EC50 (read off the curve)” value was approximately 20 nM.
Consider B6, for which the “EC50 (read off the curve)” value was approximately 10 nM.
Take B7: the “EC50 (read off the curve)” value is approximately 30 nM.
Same read-out and setting: with B8 the figure was approximately 50 nM.

Values taken from patent publication US20220235123A1 (UNIVERSITY OF TORONTO, published 2022).
